Experimental data as given in patent publication US20170101442A1.
Ends that are not written are not given here.

Assays:
[1] = molecular target: insulin-like growth factor 2 receptor (IGF2R) on rat hepatic stellate cells HSC-T6 (rat); test: flow cytometry, uptake of 5-FAM labelled peptide by HSC-T6 cells, 1 h
[2] = molecular target: insulin-like growth factor 2 receptor (IGF2R) on rat hepatic stellate cells HSC-T6 (rat); test: flow cytometry, 5-FAM labelled peptide titrated on HSC-T6 cells, 1 h at 37 C; apparent Kd

VHWDFRQWWQPS (also: 5-FAM label, position not given here) [Peptide-431]
cellular uptake [1]: 12%
Kd [2]: 12.3 µM
